Reference: patent publication EP4671269A1
“And” between values parts separate entries of the source, which are not always exact repeats. Equal values may be shown once.

How the values were obtained:
Settings in all cases: remark: other sources report otherwise
[1] = target: T1, TGF-β2, P61812; test: indirect ELISA, TGF-β2 coated
T1 chain: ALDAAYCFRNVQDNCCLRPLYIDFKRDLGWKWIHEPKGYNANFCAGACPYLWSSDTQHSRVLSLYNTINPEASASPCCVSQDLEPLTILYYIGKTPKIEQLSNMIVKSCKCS

[2] = target: T1, TGF-β2, P61812; test: indirect ELISA; […]
[3] = target: T1, TGF-β2, P61812; test: indirect ELISA; […] diluted 1:243
[4] = target: T1, TGF-β2, P61812; test: indirect ELISA; […] diluted 1:81
[5] = target: T1, TGF-β2, P61812; test: indirect ELISA; […] diluted 1:9
[6] = target: T1, TGF-β2, P61812; test: indirect ELISA; […] diluted 1:27
[7] = target: T1, TGF-β2, P61812; test: indirect ELISA; […] diluted 1:3
[8] = target: T1, TGF-β2, P61812; test: indirect ELISA; […] diluted 1:729
[9] = target: T1, TGF-β2, P61812; test: indirect ELISA; 0 (blank)

EC50 [1]: 1.03 nM | OD450 [2]: 1.46 OD and 1.44 OD | OD450 [3]: 0.202 OD and 0.158 OD | OD450 [4]: 0.253 OD and 0.211 OD | OD450 [5]: 0.908 OD and 0.925 OD | OD450 [6]: 0.432 OD and 0.462 OD | OD450 [7]: 1.34 OD and 1.32 OD | OD450 [8]: 0.184 OD and 0.152 OD | OD450 [9]: 0.176 OD and 0.16 OD
B1: TGF-βRII-mFc, P37173 24-159 (Fc fusion, UniProt P37173 24-159, looked up, not shown: a dimerising Fc or GST)
chain: IPPHVQKSVNNDMIVTDNNGAVKFPQLCKFCDVRFSTCDNQKSCMSNCSITSICEKPQEVCVAVWRKNDENITLETVCHDPKLPYHDFILEDAASPKCIMKEKKKPGETFFMCSCSSDECNDNIIFSEEYNTSNPD
